Data as given in paper PMC4385108, “Characterization of the Kluyveromyces marxianus strain DMB1 YGL157w gene product as a broad specificity NADPH-dependent aldehyde reductase” (AMB Express, 2015).

Key:
purified protein [1] = substrate: CC(=O)C=O; test: purified protein; assay type: biochemical, Kluyveromyces marxianus; conditions: 100 mM acetate pH 5.5, 25°C, 0.2 mM NADPH
purified protein [2] = substrate: NC(=O)C1=CN([C@@H]2O[C@H](COP(=O)(O)OP(=O)(O)OC[C@H]3O[C@@H](n4cnc5c(N)ncnc54)[C@H](OP(=O)(O)O)[C@@H]3O)[C@@H](O)[C@H]2O)C=CC1; test: purified protein; assay type: biochemical, Kluyveromyces marxianus; conditions: 100 mM acetate pH 5.5, 25°C, co-substrate methylglyoxal (5 mM in the standard assay), kcat unit as printed, presumably min^−1, varied: cofactor

B1: KmGRE2 (YGL157w gene product) (Kluyveromyces marxianus) (protein)
chain: MTYVVVTGASGYLAQHVIKQLLERNYKVIGTVRNQQKAKDIAKLFQNDNLTLELVPDLLQADVFDDLFLKYTGQIKHVIHTASPCRFDTTEYENEMLLPAINGTKRVLESIKKYASETVETVVYTSSVSALANPAGILDSNLTLTEESWNPDSFEDGKKDVFSAYYVSKTFAERTAWDFWKENKDQVKFQLTTICPSYIFGPQAFEENAKGTLNFSTEIVNKILHSKPGDELDKNFAGAFVDVRDVARAHVLALEKPELKSKRLVLLNDVYALQDVADYINKHFPELRGKIATGVPGEGKEIVKYIAHYDNSKTKKLLGFEFISFGQAITDTVAQILKANN
notes: monomer, about 36 kDa by gel filtration, 40 kDa by SDS-PAGE
- Km (purified protein [1]): 300 ± 18 µM
- kcat (purified protein [1]): 1.3 × 10^3 ± 15 min^−1
- Km (purified protein [2]): 28 ± 1.2 µM
